From patent US20260234223A1 (LEYDEN LABORATORIES B V, published 2026)

Biological target: SARS-CoV-2 Omicron BA.4 Spike (on pseudovirions) (SARS-CoV-2 Omicron BA.4)
Test: cell-based or functional assay

B1: COV30-14 (antibody, V domains shown)
VH: QVQLVQSGAEVKKPGASVKVSCQTSGYTFTSYYMHWVRQAPGQGLEWMGLITPSGDDTYYAQRFQGRVTMTRDTSTSPTYMELSSLTSEDTAVYYCAKMSRAGGFDVWGQGTLVTVSS
VL: EVVLTQSPGTLSLSPGERATLSCRASQSITGRYLAWYQQKPGQAPRLLMYGESSRVTGIPDRFSGGGSGTDFTLTISRLEPEDFAVYYCQHFASSPPTYTFGQGTKLEIR
notes: also called the antibody according to the invention; the antibody according to invention
With B1 the “Pseudovirion neutralization IC50 (geometric mean)” value was 7.6 µg/mL.
